Data set [1] relates to aCcr3 (Saccharolobus islandicus REY15A). Briefly: EMSA.
In data set [2] the test system is aCcr2 (Saccharolobus islandicus REY15A). Put plainly: EMSA.
For data set [3], the system named is aCcr1 (Saccharolobus islandicus REY15A). Briefly: EMSA.
The data set “SEC” concerns the molecule itself. Briefly: SEC.

The values below come from publication doi:10.1101/2025.10.16.681758 (bioRxiv, 2025).

On to PcdvA, for which the Kd turned out to be 36 nM in data set [1], 245 nM in data set [2] and 93.5 nM in data set [3].

As to MKIITVKLPEQFLEAIDELVNTGRYGSRSEVIRAAIGDFIRKELWVTTEE (natural protein, Saccharolobus islandicus REY15A, UniProt F0NFD7 1-50, looked up) [aCcr3], the “stoichiometry N” value in the data set “SEC” is 2.

B1: SiRe_0131 (natural protein, Saccharolobus islandicus REY15A, UniProt F0NG80 1-74, looked up)
chain: MEKIVKVNDTTYILEDERSVVITFKLEENILSMVDEIVKKLGYDYRSDFIRDAIEKYINYLKSSSNNSKMNINE
Take B1: in the data set “SEC”, the “stoichiometry N” value came out at 2.

B2: aCcr2 (natural protein, Saccharolobus islandicus REY15A, UniProt F0NEU4 1-57, looked up)
chain: MVRVITFKAEEELLVKLDLFALNSRMSRSEIIRMAIEKYLEEAAGGIRTRDRRLSRQ
With B2, in “SEC”, the “stoichiometry N” value was determined as 2.

Consider MRKVVSVRLKEDVLRDVDIYTRKLGLNSRTEFIKQAIEFYIKSKS (natural protein, Saccharolobus islandicus REY15A, UniProt F0NI75 1-45, looked up) [SiRe_1373], for which, in “SEC”, the “stoichiometry N” value is 2.

B3: aCcr1 (natural protein, Saccharolobus islandicus REY15A, UniProt F0NBE5 1-58, looked up)
chain: MRVVTFKVEEDLLELLDRYAIKYGLNRSEAIRKAIEKMVRDELSKERVPVARVEKIKL
Consider B3, for which, in “SEC”, the “stoichiometry N” value amounted to 2.
